The Human Domainome abundance scans (Beltran et al. 2025)
± gives the uncertainty stated by the source.

B1: Zinc finger homeobox protein 3, residues 2147 to 2202; numbered along this chain, Q15911 (parent)
chain: RPRTRITDDQLRVLRQYFDINNSPSEEQIKEMADKSGLPQKVIKHWFRNTLFKERQ

Variants of: B1
Assay: abundance fitness (aPCA) (normalised: wild type 0, dead -1); higher = more abundant; growth selection in yeast, the domain comes from the species named
Details: Homo sapiens

| Variant | abundance fitness |
| --- | --- |
| RPRTRITDDQLRVLRQYFDINNSPSEEQIKEMADKVGLPQKVIKHWFRNTLFKERQ | -0.031 ± 0.085 |
| RPRTRITDDQLRVLRQYFDINNSPSEEQIKEMADKPGLPQKVIKHWFRNTLFKERQ | -0.853 ± 0.1 |
| RPRTRITDDQLRVLRQYFDINNSPSEEQIKEMADKLGLPQKVIKHWFRNTLFKERQ | 0.019 ± 0.073 |
| RPRTRITDDQLRVLRQYFDINNSPSEEQIKEMADKTGLPQKVIKHWFRNTLFKERQ | 0.127 ± 0.079 |
| RPRTRITDDQLRVLRQYFDINNSPSEEQIKEMADKRGLPQKVIKHWFRNTLFKERQ | -0.828 ± 0.077 |
| RPRTRITDDQLRVLRQYFDINNSPSEEQIKEMADKNGLPQKVIKHWFRNTLFKERQ | 0.018 ± 0.15 |
| RPRTRITDDQLRVLRQYFDINNSPSEEQIKEMADKYGLPQKVIKHWFRNTLFKERQ | -0.178 ± 0.12 |
| RPRTRITDDQLRVLRQYFDINNSPSEEQIKEMADKWGLPQKVIKHWFRNTLFKERQ | -0.182 ± 0.084 |
| RPRTRITDDQLRVLRQYFDINNSPSEEQIKEMADKMGLPQKVIKHWFRNTLFKERQ | -0.157 ± 0.093 |
| RPRTRITDDQLRVLRQYFDINNSPSEEQIKEMADKSFLPQKVIKHWFRNTLFKERQ | -0.504 ± 0.15 |
| RPRTRITDDQLRVLRQYFDINNSPSEEQIKEMADKSNLPQKVIKHWFRNTLFKERQ | -0.124 ± 0.16 |
| RPRTRITDDQLRVLRQYFDINNSPSEEQIKEMADKSCLPQKVIKHWFRNTLFKERQ | -0.037 ± 0.13 |
| RPRTRITDDQLRVLRQYFDINNSPSEEQIKEMADKSDLPQKVIKHWFRNTLFKERQ | -0.103 ± 0.1 |
| RPRTRITDDQLRVLRQYFDINNSPSEEQIKEMADKSHLPQKVIKHWFRNTLFKERQ | -0.361 ± 0.16 |
| RPRTRITDDQLRVLRQYFDINNSPSEEQIKEMADKSVLPQKVIKHWFRNTLFKERQ | -0.427 ± 0.082 |
| RPRTRITDDQLRVLRQYFDINNSPSEEQIKEMADKSSLPQKVIKHWFRNTLFKERQ | -0.151 ± 0.087 |
| RPRTRITDDQLRVLRQYFDINNSPSEEQIKEMADKSQLPQKVIKHWFRNTLFKERQ | -0.245 ± 0.1 |
| RPRTRITDDQLRVLRQYFDINNSPSEEQIKEMADKSILPQKVIKHWFRNTLFKERQ | -0.762 ± 0.26 |
| RPRTRITDDQLRVLRQYFDINNSPSEEQIKEMADKSALPQKVIKHWFRNTLFKERQ | -0.176 ± 0.11 |
| RPRTRITDDQLRVLRQYFDINNSPSEEQIKEMADKSYLPQKVIKHWFRNTLFKERQ | -0.424 ± 0.15 |
| RPRTRITDDQLRVLRQYFDINNSPSEEQIKEMADKSRLPQKVIKHWFRNTLFKERQ | -0.071 ± 0.077 |
| RPRTRITDDQLRVLRQYFDINNSPSEEQIKEMADKSELPQKVIKHWFRNTLFKERQ | -0.155 ± 0.11 |
| RPRTRITDDQLRVLRQYFDINNSPSEEQIKEMADKSWLPQKVIKHWFRNTLFKERQ | -0.535 ± 0.1 |
| RPRTRITDDQLRVLRQYFDINNSPSEEQIKEMADKSKLPQKVIKHWFRNTLFKERQ | -0.048 ± 0.11 |

| Variant | abundance fitness |
| --- | --- |
| RPRTRITDDQLRVLRQYFDINNSPSEEQIKEMADKSMLPQKVIKHWFRNTLFKERQ | -0.341 ± 0.12 |
| RPRTRITDDQLRVLRQYFDINNSPSEEQIKEMADKSLLPQKVIKHWFRNTLFKERQ | -0.278 ± 0.088 |
| RPRTRITDDQLRVLRQYFDINNSPSEEQIKEMADKSTLPQKVIKHWFRNTLFKERQ | -0.342 ± 0.11 |
| RPRTRITDDQLRVLRQYFDINNSPSEEQIKEMADKSGLSQKVIKHWFRNTLFKERQ | 0.045 ± 0.08 |
| RPRTRITDDQLRVLRQYFDINNSPSEEQIKEMADKSGLQQKVIKHWFRNTLFKERQ | -0.167 ± 0.11 |
| RPRTRITDDQLRVLRQYFDINNSPSEEQIKEMADKSGLTQKVIKHWFRNTLFKERQ | -0.031 ± 0.099 |
| RPRTRITDDQLRVLRQYFDINNSPSEEQIKEMADKSGLVQKVIKHWFRNTLFKERQ | -0.119 ± 0.079 |
| RPRTRITDDQLRVLRQYFDINNSPSEEQIKEMADKSGLHQKVIKHWFRNTLFKERQ | -0.079 ± 0.18 |
| RPRTRITDDQLRVLRQYFDINNSPSEEQIKEMADKSGLAQKVIKHWFRNTLFKERQ | -0.068 ± 0.078 |
| RPRTRITDDQLRVLRQYFDINNSPSEEQIKEMADKSGLGQKVIKHWFRNTLFKERQ | -0.016 ± 0.068 |
| RPRTRITDDQLRVLRQYFDINNSPSEEQIKEMADKSGLRQKVIKHWFRNTLFKERQ | -0.156 ± 0.082 |
| RPRTRITDDQLRVLRQYFDINNSPSEEQIKEMADKSGLWQKVIKHWFRNTLFKERQ | -0.564 ± 0.1 |
| RPRTRITDDQLRVLRQYFDINNSPSEEQIKEMADKSGLEQKVIKHWFRNTLFKERQ | 0.009 ± 0.082 |
| RPRTRITDDQLRVLRQYFDINNSPSEEQIKEMADKSGLFQKVIKHWFRNTLFKERQ | -0.746 ± 0.22 |
| RPRTRITDDQLRVLRQYFDINNSPSEEQIKEMADKSGLYQKVIKHWFRNTLFKERQ | -0.284 ± 0.34 |
| RPRTRITDDQLRVLRQYFDINNSPSEEQIKEMADKSGLIQKVIKHWFRNTLFKERQ | -0.199 ± 0.16 |
| RPRTRITDDQLRVLRQYFDINNSPSEEQIKEMADKSGLDQKVIKHWFRNTLFKERQ | -0.015 ± 0.14 |
| RPRTRITDDQLRVLRQYFDINNSPSEEQIKEMADKSGLMQKVIKHWFRNTLFKERQ | -0.258 ± 0.097 |
| RPRTRITDDQLRVLRQYFDINNSPSEEQIKEMADKSGLNQKVIKHWFRNTLFKERQ | -0.249 ± 0.22 |
| RPRTRITDDQLRVLRQYFDINNSPSEEQIKEMADKSGLCQKVIKHWFRNTLFKERQ | -0.192 ± 0.15 |
| RPRTRITDDQLRVLRQYFDINNSPSEEQIKEMADKSGLLQKVIKHWFRNTLFKERQ | -0.329 ± 0.078 |
| RPRTRITDDQLRVLRQYFDINNSPSEEQIKEMADKSGIPQKVIKHWFRNTLFKERQ | -0.124 ± 0.22 |
| RPRTRITDDQLRVLRQYFDINNSPSEEQIKEMADKSGTPQKVIKHWFRNTLFKERQ | -0.449 ± 0.12 |
